Residue numbers refer to the chain shown, from its start.

In test [1] the target is T1, ALK-LF655FY.
T1 construct: also called NIH3T3 ALK LF655FY; MSCV-LF655FY
The test can be described thus: immunofluorescence on NIH3T3 cells expressing the construct.
Experimental: A 1:100 antibody dilution was used.
Cells (0.5×10⁶ per well) were seeded into six-well plates and grown on glass coverslips for 24 hr. before fixation in 4% paraformaldehyde in PBS for 15 min at room temperature (RT), washed with PBS, permeabilized in 0.1% Triton X-100, and blocked with PBS containing 0.05% Tween-20 and 5% BSA for 1 hr. to block nonspecific binding. […] Images were collected on a Zeiss AXIO Imager Z1 fluorescence microscope. […] After 24 hours, cells were washed once in PBS, fixed in 4% paraformaldehyde in PBS, washed, permeabilized in 0.1% Triton X-100, and blocked in PBS containing 10% horse serum. […] The next day, cells were washed, incubated in goat anti-rabbit IgG secondary antibody (1:1000) for 1 hr. washed, and incubated in Streptavidin-TexasRed (1:1000) for 1 hr. Cover slips were mounted onto slides using mounting medium containing DAPI. Images were collected on a Zeiss AXIO Imager Z1 fluorescence microscope.

In test [2] the target is T2, 140 kDa truncated membrane-bound C-terminal ALK fragment (human, UniProt Q9UM73 655-1620).
T2 construct: also called CTF; 140 kDa fragment
In words: western blot of NB cell lysates. For orientation: In western blotting, separated proteins are transferred to a membrane and probed.

In test [3] the target is T3, Irrel-hFc.
T3 construct: also called irrelevant hFc protein
The test can be described thus: ELISA of hybridoma supernatant on a plate coated with an irrelevant hFc protein, detection with anti-mouse kappa light chain antibody; control row Co 0.062. On the procedure:
(§1) HAT-selected fused cells were distributed in 96 well plates and the hybridoma supernatants were subjected to several rounds of screening. Initial screening was performed using ELISA against human Fc to test antigen binding with the ALK ECD-human Fc fusion protein. […] These were rescreened by FACS against Ba/F3 and neuroblastoma (NB) cells expressing ALK. […] (A) Binding of hybridoma supernatants using an antigen-binding capture assay. The plate was coated with goat-anti-mouse IgG Fc, incubated with hybridoma supernatants, followed by ALK-HRP and visualized using an HRP substrate. (B) Binding of selected hybridoma supernatants to a human Fc antibody using ELISA screening. Plates were coated with the ALK ECD-human Fc fusion protein (ALK-hFc) together with an irrelevant hFc protein and visualized using an anti-mouse kappa light chain antibody.
(In general: In an ELISA, binding on a coated surface is turned into a signal by an enzyme label.)

For test [4], the target named is T4, ALK-hFc.
T4 construct: also called ALK ECD-human Fc fusion protein; ALK-ECD-hFc; not shown: Human IgG2 Fc of the vector pFUse-hIgG2-FC2, and any vector-derived junction residues
In words: ELISA of hybridoma supernatant on a plate coated with ALK-hFc, detection with anti-mouse kappa light chain antibody; control row Co 0.067. On the procedure:
as §1

In test [5] the target is T5, Full-length human anaplastic lymphoma kinase (ALK) receptor, wild type (human, UniProt Q9UM73 19-1620).
T5 construct: Tested in cell lysates (western blot, IP) and on fixed cells (IF, ICC); HA- or FLAG-tagged in the co-IP dimerisation assay and FLAG-tagged and purified in the MMP-9 cleavage assay; also called WT ALK; ALK WT
The test can be described thus: western blot of NB cell lysates.

For test [6], the target named is T6, Shed ALK extracellular domain fragment (ALK 1-654) (human, UniProt Q9UM73 19-654).
T6 construct: Fragment released into conditioned media or serum by cleavage at Asn654-Leu655; also called SF; secreted extracellular fragment
In words: sandwich ELISA, 7F7 capture, 8G7 detection, ALK-ECD protein as the varied antigen. The text has this:
(B) ELISA of the shed ALK ECD protein in sera from patients with neuroblastoma.

The target of test [7] is T7, Human ALK F1174L (human, UniProt Q9UM73 19-1620).
T7 construct: Expressed in SHEP neuroblastoma cells (IF) and in tumours of the ALK F1174L/MYCN transgenic mouse (IHC)
In words: immunofluorescence on SHEP cells expressing ALK F1174L, 1:100 dilution.

T4 sequence (chain, as listed by the source limits assumed): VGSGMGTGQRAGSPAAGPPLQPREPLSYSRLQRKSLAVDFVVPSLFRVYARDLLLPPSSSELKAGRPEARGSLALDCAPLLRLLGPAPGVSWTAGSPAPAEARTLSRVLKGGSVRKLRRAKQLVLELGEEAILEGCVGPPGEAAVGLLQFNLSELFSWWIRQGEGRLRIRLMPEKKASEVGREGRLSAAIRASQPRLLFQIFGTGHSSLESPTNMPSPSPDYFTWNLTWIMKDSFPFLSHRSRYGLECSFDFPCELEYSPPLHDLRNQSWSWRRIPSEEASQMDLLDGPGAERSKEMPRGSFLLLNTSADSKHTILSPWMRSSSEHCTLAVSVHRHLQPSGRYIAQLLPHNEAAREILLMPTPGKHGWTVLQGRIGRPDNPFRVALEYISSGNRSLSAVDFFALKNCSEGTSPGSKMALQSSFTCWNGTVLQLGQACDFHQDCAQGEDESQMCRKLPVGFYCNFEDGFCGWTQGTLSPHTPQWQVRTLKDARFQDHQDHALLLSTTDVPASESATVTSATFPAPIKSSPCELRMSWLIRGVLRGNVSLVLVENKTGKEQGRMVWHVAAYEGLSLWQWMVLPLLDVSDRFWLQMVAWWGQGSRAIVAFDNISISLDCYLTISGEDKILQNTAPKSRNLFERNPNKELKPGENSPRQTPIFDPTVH
T5 sequence (Q9UM73 19-1620 limits assumed): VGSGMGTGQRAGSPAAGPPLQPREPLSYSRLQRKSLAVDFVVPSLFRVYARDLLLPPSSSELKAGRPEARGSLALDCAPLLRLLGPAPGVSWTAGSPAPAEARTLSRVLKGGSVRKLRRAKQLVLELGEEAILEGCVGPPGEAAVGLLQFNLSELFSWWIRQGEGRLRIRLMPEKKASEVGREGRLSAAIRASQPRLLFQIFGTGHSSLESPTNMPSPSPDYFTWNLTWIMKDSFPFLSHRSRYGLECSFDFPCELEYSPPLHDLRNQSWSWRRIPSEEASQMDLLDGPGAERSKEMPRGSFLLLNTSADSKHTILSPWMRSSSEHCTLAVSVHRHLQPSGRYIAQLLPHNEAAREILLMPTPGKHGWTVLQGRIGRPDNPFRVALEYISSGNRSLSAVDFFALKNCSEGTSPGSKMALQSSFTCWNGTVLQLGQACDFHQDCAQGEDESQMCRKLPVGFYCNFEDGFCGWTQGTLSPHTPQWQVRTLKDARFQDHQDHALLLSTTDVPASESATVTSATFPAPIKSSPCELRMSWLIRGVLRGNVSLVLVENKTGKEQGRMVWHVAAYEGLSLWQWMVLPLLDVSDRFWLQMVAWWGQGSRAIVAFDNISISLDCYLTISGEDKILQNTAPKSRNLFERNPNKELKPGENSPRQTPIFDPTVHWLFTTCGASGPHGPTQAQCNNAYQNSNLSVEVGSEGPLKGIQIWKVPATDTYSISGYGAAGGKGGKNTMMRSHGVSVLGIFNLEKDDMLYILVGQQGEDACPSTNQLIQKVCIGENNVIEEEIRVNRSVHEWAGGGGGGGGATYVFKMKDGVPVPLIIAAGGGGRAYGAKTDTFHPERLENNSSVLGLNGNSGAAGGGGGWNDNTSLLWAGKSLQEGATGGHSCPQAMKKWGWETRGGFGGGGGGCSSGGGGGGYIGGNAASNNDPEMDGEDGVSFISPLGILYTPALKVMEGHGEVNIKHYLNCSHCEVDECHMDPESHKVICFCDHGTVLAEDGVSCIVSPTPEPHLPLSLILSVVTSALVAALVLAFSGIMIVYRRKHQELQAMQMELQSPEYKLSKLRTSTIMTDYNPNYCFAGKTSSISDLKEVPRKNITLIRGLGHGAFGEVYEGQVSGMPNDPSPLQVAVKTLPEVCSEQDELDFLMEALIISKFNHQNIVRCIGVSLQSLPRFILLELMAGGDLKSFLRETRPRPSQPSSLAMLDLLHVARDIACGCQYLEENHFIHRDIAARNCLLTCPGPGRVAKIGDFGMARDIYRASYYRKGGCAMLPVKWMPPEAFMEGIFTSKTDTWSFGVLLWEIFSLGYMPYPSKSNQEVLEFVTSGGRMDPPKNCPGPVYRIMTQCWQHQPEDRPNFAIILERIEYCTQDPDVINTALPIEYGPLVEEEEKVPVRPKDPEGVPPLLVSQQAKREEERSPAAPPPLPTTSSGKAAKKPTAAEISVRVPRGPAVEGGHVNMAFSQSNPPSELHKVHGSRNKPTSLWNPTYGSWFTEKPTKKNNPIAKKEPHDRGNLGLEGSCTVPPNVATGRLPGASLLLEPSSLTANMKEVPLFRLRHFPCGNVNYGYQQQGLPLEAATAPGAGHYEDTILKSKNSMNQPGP
T1 sequence (receptor chain, as listed by the source): as the sequence (Q9UM73 19-1620 limits assumed) above, with L637F, F638Y counted along it
T7 sequence (Q9UM73 19-1620 F1174L limits assumed): as the sequence (Q9UM73 19-1620 limits assumed) above, with F1156L counted along it
T2 sequence (Q9UM73 655-1620): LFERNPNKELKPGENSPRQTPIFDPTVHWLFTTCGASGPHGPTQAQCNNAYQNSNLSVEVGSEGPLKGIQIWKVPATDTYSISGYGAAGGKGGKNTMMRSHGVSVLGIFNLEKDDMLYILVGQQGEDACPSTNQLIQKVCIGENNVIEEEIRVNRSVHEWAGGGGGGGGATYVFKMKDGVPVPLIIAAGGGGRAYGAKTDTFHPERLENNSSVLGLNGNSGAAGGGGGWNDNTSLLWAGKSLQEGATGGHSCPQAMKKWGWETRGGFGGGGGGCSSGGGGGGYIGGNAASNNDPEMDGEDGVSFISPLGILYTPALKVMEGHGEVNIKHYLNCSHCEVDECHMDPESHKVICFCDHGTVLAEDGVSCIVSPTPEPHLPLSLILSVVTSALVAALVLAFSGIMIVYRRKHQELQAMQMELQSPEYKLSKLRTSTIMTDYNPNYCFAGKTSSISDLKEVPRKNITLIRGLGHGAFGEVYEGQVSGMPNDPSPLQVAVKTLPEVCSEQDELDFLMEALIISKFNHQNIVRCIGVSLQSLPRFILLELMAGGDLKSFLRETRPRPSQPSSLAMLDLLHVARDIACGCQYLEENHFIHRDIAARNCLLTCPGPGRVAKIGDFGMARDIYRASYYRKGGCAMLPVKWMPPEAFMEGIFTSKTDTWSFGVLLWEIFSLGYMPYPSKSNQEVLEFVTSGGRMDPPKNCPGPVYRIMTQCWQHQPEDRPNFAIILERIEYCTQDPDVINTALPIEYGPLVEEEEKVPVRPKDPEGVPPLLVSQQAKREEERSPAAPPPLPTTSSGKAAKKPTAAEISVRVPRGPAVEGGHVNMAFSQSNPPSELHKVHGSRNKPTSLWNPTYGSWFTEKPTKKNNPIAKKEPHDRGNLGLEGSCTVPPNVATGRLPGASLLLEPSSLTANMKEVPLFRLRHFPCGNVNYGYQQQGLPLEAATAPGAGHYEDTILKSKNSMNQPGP
T6 sequence (Q9UM73 19-654): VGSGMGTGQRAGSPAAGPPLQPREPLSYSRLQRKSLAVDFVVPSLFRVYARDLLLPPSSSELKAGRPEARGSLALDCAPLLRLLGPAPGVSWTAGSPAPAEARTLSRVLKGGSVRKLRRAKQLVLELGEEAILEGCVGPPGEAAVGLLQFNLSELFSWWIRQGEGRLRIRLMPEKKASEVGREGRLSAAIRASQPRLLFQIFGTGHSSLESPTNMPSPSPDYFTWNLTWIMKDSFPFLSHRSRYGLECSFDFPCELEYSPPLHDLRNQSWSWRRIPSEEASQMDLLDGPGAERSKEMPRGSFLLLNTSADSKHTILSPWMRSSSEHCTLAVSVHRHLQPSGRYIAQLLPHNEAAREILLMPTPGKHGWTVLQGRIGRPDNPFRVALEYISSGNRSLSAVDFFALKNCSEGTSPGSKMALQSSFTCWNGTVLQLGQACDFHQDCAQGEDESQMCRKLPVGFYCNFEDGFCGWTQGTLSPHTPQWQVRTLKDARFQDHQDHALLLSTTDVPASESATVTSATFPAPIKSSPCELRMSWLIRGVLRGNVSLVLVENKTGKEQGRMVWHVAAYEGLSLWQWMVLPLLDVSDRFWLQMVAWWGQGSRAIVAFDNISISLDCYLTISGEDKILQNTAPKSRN

B1: Mouse monoclonal anti-ALK 8G7 (antibody, IgG1, V domains shown)
VH: QVQLQQSGAELVRPGASVTLSCKASGYTFTDYEMHWVKQTPVHGLEWIGAIDPETGGSAYNQKFKAKAILTADRSSSTAYMELRSLTSEDSAVYYCTRTRYYGSSPAMDYWGQGTSVTVSS
VL: DIQMTQTTSSLSASLGDRVTISCSASQGIGNYLNWYQQKPDGTVKLLIYYTSSLHSGVPSRFSGSGSGTDYSLTISNLEPEDIATYYCQQYSKLPYTFGGGTKLEIK
notes: constant regions are not; also called Ab 8G7; 8G7 N-terminal anti-ALK antibody
Turning to B1, the binding result in test [1] is given as “binds”; in test [2] it was “no binding”. In addition, the “ELISA reading (name not given)” value in test [3] came to 0.064; in test [4], 0.56.

B2: Monoclonal anti-ALK antibody 7F7 (antibody, IgG1, V domains shown)
VH: QVQLQQSGAELVRPGASVTLSCKASGYTFTDYEIHWMKQTPVHGLEWIGTIDPETGGTAYNQKFKGKAILTADKSSSTAYMELRSLTSEDSAVYYCTRCYYGSSWYFDVWGTGTTVTVSS
VL: DIQMTQTTSSLSASLGDRVTISCSASQGISNYLNWYQQKPDGTVKLLIYYTSSLHSGVPSRFSGSGSGTDYSLTISNLELEDIATYYCQQYSKVPRTFGGGTKLEIKR
notes: also called Ab 7F7
B2: the binding result in test [5], in test [6] and in test [7] was “binds” each time. Moreover, the “ELISA reading (name not given)” value was 0.063 in test [3] and 0.872 in test [4].

B3: Monoclonal anti-ALK antibody 5H3 (antibody, IgG1, V domains shown)
VH: B1 VH
VL: B2 VL with S30G, L80P, V94L, R96Y
notes: The variable part as printed looks identical to that of 8G7; also called Ab 5H3
Turning to B3, the “ELISA reading (name not given)” value in test [3] was found to be 0.064; in test [4], 1.01.

These data come from US20240262917A1 (Dana-Farber, published 2024).
